± gives the standard deviation of the averaged measurements.
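Further: ATP exposure 15 min at 22 °C before imaging.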

In the data set the test system is ATP. Kind of data set: switch fluorescence ratio, 500 uM ATP over buffer (Cy3 cluster intensity, sum of 5 cycles each) (fold (ratio)); higher = stronger signal-on switching upon ATP binding; sequences stand for … in TCGTCGGCAGCGTCAGATGTGTATAAGAGACAGTTTTTTTTTTTTTTTTTTTTTTTTT…TC. The settings on record: aptamer strand: ATP DNA aptamer (quencher-CACCTGGGGGAGTATTGCGGAGGAAGG + anchor), 100 nM annealed; ATP concentration: 500 uM. The method in brief: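 Switching-strand clusters labelled with Cy3 on a modified Illumina MiSeq flow-cell were annealed to 100 nM quencher-labelled ATP aptamer, imaged in selection buffer, and re-imaged after 15 min with 500 uM ATP at 22 °C. This was done over five cycles with NaOH stripping and re-annealing in between. The fluorescence ratio is summed target-cycle over summed buffer-cycle Cy3 intensity per cluster, averaged per switch-domain sequence, excluding clusters outside 100-1000 RFU.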
Turning to TTGTGATGGA, the switch fluorescence ratio came to 0.9896 ± 0.008.

Turning to TCCCCCCCTT, the switch fluorescence ratio turned out to be 1.41 ± 0.58.

For the sequence CGCGGTCATA, the switch fluorescence ratio came to 1.023 ± 0.01.

Consider GAATGGAGTA, for which the switch fluorescence ratio was 1.04 ± 0.039.

As to AATTTGCGGG, the switch fluorescence ratio worked out at 0.98 ± 0.024.

As for CTATCGGGAG, the switch fluorescence ratio was determined as 0.9831 ± 0.0025.

In the case of ACGGTGGCGT, the switch fluorescence ratio is 1.02 ± 0.016.

Turning to CATATATTTT, the switch fluorescence ratio came out at 1.04 ± 0.058.

As to AGAGCTGTTG, the switch fluorescence ratio amounted to 1.01 ± 0.019.

In the case of GGTATAAGGT, the switch fluorescence ratio was 1.006 ± 0.01.

Consider GGAGTAAGAG, for which the switch fluorescence ratio amounted to 1.11 ± 0.21.

Take AGAAGGGCCC: the switch fluorescence ratio was 0.9967 ± 0.0016.

Turning to GGCTGGCCAT, the switch fluorescence ratio came to 1.01 ± 0.025.

With GCGTATATAA, the switch fluorescence ratio turned out to be 1.04 ± 0.044.

As to CGGTTGGCGA, the switch fluorescence ratio turned out to be 1.02 ± 0.011.

TGTCACTGTT: the switch fluorescence ratio worked out at 0.965 ± 0.022.

For the sequence GGGCATAATG, the switch fluorescence ratio came to 1.02 ± 0.041.

With TGATCGTCTG, the switch fluorescence ratio amounted to 1.031 ± 0.0017.

In the case of TTGACGCGTC, the switch fluorescence ratio amounted to 1.02 ± 0.018.

For GTAGCCTGGT, the switch fluorescence ratio came to 0.989 ± 0.041.

TCGACGGGCG: the switch fluorescence ratio was 1.03 ± 0.02.

As for AAGGGGCATG, the switch fluorescence ratio amounted to 1.001 ± 0.0025.

On to ACTTGTTGCG, for which the switch fluorescence ratio is 0.989 ± 0.056.

With CCGGGGAATC, the switch fluorescence ratio is 2.19 ± 0.57.

With CGAAATATCT, the switch fluorescence ratio was 1.04 ± 0.058.

For the sequence AGAAAAGGGT, the switch fluorescence ratio came out at 0.997 ± 0.03.

For GGGGTAGGCC, the switch fluorescence ratio is 0.995 ± 0.018.

Take AGGACCGGGT: the switch fluorescence ratio came out at 1.03 ± 0.021.

With TTTCTATTTG, the switch fluorescence ratio turned out to be 1.02 ± 0.029.

In the case of GGGGTGGATG, the switch fluorescence ratio is 0.997 ± 0.018.

With AACCGCGGTG, the switch fluorescence ratio came to 0.984 ± 0.011.

Turning to CTGGATAGCG, the switch fluorescence ratio amounted to 0.981 ± 0.044.

On to AGAGGTAACT, for which the switch fluorescence ratio is 0.993 ± 0.014.

Consider TTAGATGGGG, for which the switch fluorescence ratio worked out at 1.01 ± 0.11.

For the sequence CCTGAGGAGG, the switch fluorescence ratio worked out at 0.997 ± 0.014.

Turning to TTGGGGCAGG, the switch fluorescence ratio was 1.1 ± 0.07.

With TTAAGTTTTC, the switch fluorescence ratio was determined as 0.979 ± 0.015.

Take CCTGGATATT: the switch fluorescence ratio is 0.997 ± 0.013.

In the case of TTGGTTCGAC, the switch fluorescence ratio was 0.962 ± 0.04.

Consider AAGGGAATGG, for which the switch fluorescence ratio came to 1.04 ± 0.046.

For TTGATTGGCA, the switch fluorescence ratio was 0.993 ± 0.025.

TGGGGAAACT: the switch fluorescence ratio stood at 1.15 ± 0.23.

With ACTTTGGCC, the switch fluorescence ratio was determined as 1.0113 ± 0.00058.

As for AAACATAGGG, the switch fluorescence ratio stood at 1.02 ± 0.038.

Consider GAATGGATGC, for which the switch fluorescence ratio amounted to 1.01 ± 0.0064.

Turning to ACGGTCTCGG, the switch fluorescence ratio came out at 1.01 ± 0.025.

ATCTGTAGGG: the switch fluorescence ratio amounted to 1.023 ± 0.0075.

For the sequence CGGGGATCGG, the switch fluorescence ratio turned out to be 0.984 ± 0.011.

On to GAGCTAGGCA, for which the switch fluorescence ratio was determined as 0.958 ± 0.03.

On to ACGAATGCGG, for which the switch fluorescence ratio is 0.941 ± 0.042.

Regarding TTTGGATAAA, the switch fluorescence ratio amounted to 1.04 ± 0.049.

For TAAAACTTAC, the switch fluorescence ratio turned out to be 1.45 ± 0.1.

For AGCATTTTCC, the switch fluorescence ratio is 1.135 ± 0.0063.

As for CATATGGTAT, the switch fluorescence ratio came out at 1.02 ± 0.037.

For TTGGGGCTAG, the switch fluorescence ratio is 1.02 ± 0.026.

Take CTTGTCGATT: the switch fluorescence ratio was found to be 0.999 ± 0.04.

Take TTAGTTTGGG: the switch fluorescence ratio is 1.02 ± 0.016.

As to AAGTTTAATT, the switch fluorescence ratio worked out at 1.02 ± 0.012.

Regarding TGGCCTAATG, the switch fluorescence ratio is 0.965 ± 0.013.

As for GCCGGTTTCT, the switch fluorescence ratio was determined as 1.01 ± 0.031.

Turning to TTAATAAGGT, the switch fluorescence ratio worked out at 1.01 ± 0.035.

For TGGTCGGTAG, the switch fluorescence ratio was found to be 0.9855 ± 0.0023.

Take AAACAGTTGT: the switch fluorescence ratio is 1.01 ± 0.055.

As for ACCGAGGGGT, the switch fluorescence ratio is 1.06 ± 0.077.

For TAATCTGCTG, the switch fluorescence ratio turned out to be 1.01 ± 0.02.

As to GTTATAAGGA, the switch fluorescence ratio is 0.988 ± 0.019.

Regarding ACCTTTAACT, the switch fluorescence ratio turned out to be 1.03 ± 0.017.

With CACTTTTGTA, the switch fluorescence ratio was 1.01 ± 0.012.

As to ATTTTTATAA, the switch fluorescence ratio came out at 0.987 ± 0.025.

Consider GGTCCGGTTC, for which the switch fluorescence ratio worked out at 1.01 ± 0.025.

GCCCGCAAGG: the switch fluorescence ratio was 1.42 ± 0.015.

Take TCGCTGAGTG: the switch fluorescence ratio was found to be 1.08 ± 0.12.

As to AGTTTATTTT, the switch fluorescence ratio is 0.986 ± 0.034.

Take ATTAGTGTTC: the switch fluorescence ratio was 0.987 ± 0.043.

On to TATTTTTTA, for which the switch fluorescence ratio came out at 1.019 ± 0.0089.

Turning to CATCGTGGGT, the switch fluorescence ratio is 0.975 ± 0.027.

For GTTTAGAATT, the switch fluorescence ratio turned out to be 1.004 ± 0.01.

On to TTGGGGCATG, for which the switch fluorescence ratio was 0.971 ± 0.011.

On to GCAGGATCCG, for which the switch fluorescence ratio is 0.99684 ± 0.00077.

The values above are taken from the supplement of paper PMC10126150.
